Measured values published in the supplement of paper PMC12783771.
Where a chain is given by its changes, count along the chain named. ± gives the standard deviation of the averaged measurements.

B1: library; a variant is named by its letters at X, in order (parent)
chain: MNIQIGELAKRTACPVVTIRFYEQEGLLPPPGRSRGNFRLYGEEHVERLQFIRHCRSLDMPLSXVRTLLSYRKRPDQDCGEVXMLLDEHXRQVESRIGALLELXHXLVELREACSGARPAQSCGILQGLSDCVCDTRGTTAHXSD
B2: library; a variant is named by its letters at X, in order (parent)
chain: B1 chain with X90I, X106H, L107X, G128X, D131X, D135X

Columns and labels:
[1] = variants of: B1; experiment: sfGFP reporter fluorescence (15 h) (µM FITC); higher = higher leak; settings: library round: Round 3b; ligand: none
Protocol: (§1)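 Cell-free biosensing: 1 µL Echo-assembled CFE reactions with linear PbrR variant templates (5 nM) and pPbrR-sfGFP reporter, with 1 µM Pb, 30 µM Zn or no ligand; endpoint sfGFP fluorescence after 15 h at 30 °C calibrated as µM FITC. Round 3b rational combinatorial PbrR mutants; 3 biological replicates.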

[2] = variants of: B1; experiment: sfGFP reporter fluorescence (15 h) (µM FITC); higher = stronger transcriptional activation; settings: library round: Round 3b
Protocol: as §1

[3] = variants of: B2; experiment: sfGFP reporter fluorescence (15 h) (µM FITC); higher = higher leak; settings: library round: Round 3; ligand: none
Protocol: (§2)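 Cell-free biosensing: 1 µL Echo-assembled CFE reactions with linear PbrR variant templates (5 nM) and pPbrR-sfGFP reporter, with 1 µM Pb, 30 µM Zn or no ligand; endpoint sfGFP fluorescence after 15 h at 30 °C calibrated as µM FITC. Round 3 ML-predicted PbrR mutants; up to 3 biological replicates.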

[4] = variants of: B2; experiment: sfGFP reporter fluorescence (15 h) (µM FITC); higher = stronger transcriptional activation; settings: library round: Round 3
Protocol: as §2

| Variant | sfGFP reporter fluorescence [1] | sfGFP reporter fluorescence ([2]; ligand: 1 µM Pb) | sfGFP reporter fluorescence ([2]; ligand: 30 µM Zn) | sfGFP reporter fluorescence [3] | sfGFP reporter fluorescence ([4]; ligand: 1 µM Pb) | sfGFP reporter fluorescence ([4]; ligand: 30 µM Zn) |
| --- | --- | --- | --- | --- | --- | --- |
| KIITHT | 0.0492 ± 0.0029 | 0.471 ± 0.031 | 0.0728 ± 0.0057 | – | – | – |
| DIIVAT | 0.0468 ± 0.0037 | 0.131 ± 0.0097 | 0.0469 ± 0.005 | – | – | – |
| KIIVAT | 0.0506 ± 0.0022 | 0.424 ± 0.013 | 0.0534 ± 0.0041 | – | – | – |
| KIIVEP | 0.0554 ± 0.0036 | 0.372 ± 0.031 | 0.0556 ± 0.0028 | – | – | – |
| DIIVER | 0.0467 ± 0.0027 | 0.0917 ± 0.0042 | 0.047 ± 0.0038 | – | – | – |
| DIIVET | 0.0433 ± 0.0015 | 0.0933 ± 0.0025 | 0.0469 ± 0.0019 | – | – | – |
| KIIVET | 0.0535 ± 0.0022 | 0.346 ± 0.015 | 0.0557 ± 0.0014 | – | – | – |
| KIIVHT | 0.053 ± 0.0034 | 0.673 ± 0.034 | 0.101 ± 0.015 | – | – | – |
| KNAKAR | 0.0687 ± 0.0037 | 0.394 ± 0.045 | 0.754 ± 0.11 | – | – | – |
| KNAKAT | 0.0671 ± 0.0058 | 0.353 ± 0.02 | 0.795 ± 0.18 | – | – | – |
| KNAKER | 0.0626 ± 0.0049 | 0.296 ± 0.036 | 0.621 ± 0.066 | – | – | – |
| KNAKET | 0.0595 ± 0.0029 | 0.248 ± 0.0068 | 0.569 ± 0.068 | – | – | – |
| KNATAP | 0.052 ± 0.0055 | 0.226 ± 0.015 | 0.311 ± 0.038 | – | – | – |
| DNATAR | 0.0439 ± 0.0034 | 0.0477 ± 0.0023 | 0.0627 ± 0.0048 | – | – | – |
| KNATAR | 0.0517 ± 0.005 | 0.302 ± 0.012 | 0.406 ± 0.066 | – | – | – |
| DNATAT | 0.0419 ± 0.0058 | 0.0459 ± 0.0022 | 0.059 ± 0.0073 | – | – | – |
| KNATAT | 0.0532 ± 0.0029 | 0.305 ± 0.021 | 0.514 ± 0.057 | – | – | – |
| KNATEP | 0.0501 ± 0.0039 | 0.279 ± 0.052 | 0.261 ± 0.015 | – | – | – |
| DNATER | 0.0446 ± 0.0017 | 0.0458 ± 0.0017 | 0.0522 ± 0.0022 | – | – | – |
| KNATER | 0.0529 ± 0.0011 | 0.343 ± 0.014 | 0.336 ± 0.035 | – | – | – |
| DNATET | 0.0419 ± 0.00051 | 0.0463 ± 0.0026 | 0.0623 ± 0.0031 | – | – | – |
| KNATET | 0.055 ± 0.0007 | 0.324 ± 0.017 | 0.34 ± 0.031 | – | – | – |
| KNATHR | 0.0571 ± 0.0019 | 0.412 ± 0.041 | 0.602 ± 0.08 | – | – | – |

| Variant | sfGFP reporter fluorescence [1] | sfGFP reporter fluorescence ([2]; ligand: 1 µM Pb) | sfGFP reporter fluorescence ([2]; ligand: 30 µM Zn) | sfGFP reporter fluorescence [3] | sfGFP reporter fluorescence ([4]; ligand: 1 µM Pb) | sfGFP reporter fluorescence ([4]; ligand: 30 µM Zn) |
| --- | --- | --- | --- | --- | --- | --- |
| KNATHT | 0.0681 ± 0.0016 | 0.443 ± 0.015 | 0.764 ± 0.13 | – | – | – |
| KNAVAP | 0.0482 ± 0.0035 | 0.142 ± 0.0073 | 0.214 ± 0.025 | – | – | – |
| DNAVAR | 0.0458 ± 0.0027 | 0.0485 ± 0.0025 | 0.0579 ± 0.0046 | – | – | – |
| KNAVAR | 0.0498 ± 0.001 | 0.195 ± 0.018 | 0.309 ± 0.028 | – | – | – |
| DNAVAT | 0.0419 ± 0.0015 | 0.0454 ± 0.0015 | 0.0637 ± 0.0046 | – | – | – |
| KNAVAT | 0.045 ± 0.0035 | 0.155 ± 0.0086 | 0.237 ± 0.018 | – | – | – |
| KNAVEP | 0.0529 ± 0.0031 | 0.235 ± 0.021 | 0.211 ± 0.024 | – | – | – |
| DNAVER | 0.0468 ± 0.0035 | 0.0511 ± 0.0015 | 0.062 ± 0.0046 | – | – | – |
| KNAVER | 0.0532 ± 0.0015 | 0.334 ± 0.025 | 0.313 ± 0.04 | – | – | – |
| DNAVET | 0.0438 ± 0.0014 | 0.0536 ± 0.0031 | 0.0603 ± 0.0036 | – | – | – |
| KNAVET | 0.0522 ± 0.0014 | 0.261 ± 0.01 | 0.223 ± 0.016 | – | – | – |
| KNAVHR | 0.0557 ± 0.0039 | 0.37 ± 0.021 | 0.644 ± 0.054 | – | – | – |
| KNAVHT | 0.0573 ± 0.0042 | 0.322 ± 0.0077 | 0.602 ± 0.057 | – | – | – |
| DNIKHP | 0.043 ± 0.0052 | 0.0535 ± 0.0032 | 0.281 ± 0.018 | – | – | – |
| KNITAR | 0.0701 ± 0.0068 | 0.379 ± 0.032 | 1.07 ± 0.19 | – | – | – |
| KNITAT | 0.0655 ± 0.0027 | 0.358 ± 0.021 | 0.972 ± 0.077 | – | – | – |
| KNITER | 0.0631 ± 0.0055 | 0.311 ± 0.029 | 0.926 ± 0.12 | – | – | – |
| KNITET | 0.0629 ± 0.0071 | 0.318 ± 0.015 | 0.944 ± 0.15 | – | – | – |
| KNIVAT | 0.092 ± 0.0023 | 0.52 ± 0.048 | 1.42 ± 0.2 | – | – | – |
| KNIVER | 0.115 ± 0.006 | 0.585 ± 0.046 | 1.4 ± 0.2 | – | – | – |
| KNIVET | 0.112 ± 0.0075 | 0.514 ± 0.055 | 1.2 ± 0.06 | – | – | – |
| LCKCGAAP H54C C55P H106L | – | – | – | 0.0458 ± 0.0017 | 0.0424 ± 0.0028 | 0.0474 ± 0.0026 |
